These results are taken from IntAct's records for PubMed 24880343.

To fix the notation:
B1: PAN2-PAN3 deadenylation complex subunit PAN3 (Drosophila melanogaster (Fruit fly)), Q95RR8 (parent)
chain: MCSTYGLLSFEFSDTAAMDPIFFSPTNGIPSESKLATYMNRQNVATPSGYGLNNGFSLLNLDSPLNKKSQVTPQSPEFIPTRLGSTPNFYAPYHNAPMQLSNGLNGVNGLTAAAAAAAAAAAAAAAAVPSSTSSASSASVTISKTANGGASMLALQKTASIASVTIAQQQPQHPQKQQQHPPSVGGGAVSAASAPIAISGAPPNPAAAPFVSSMSAQTPLKGRGAMMRQESPTAAMISGAGPGEKSPPHGMTPHGASPIPSALPTSVHQENVGGTIYFYPTANAQNSQPVVNSMVVDGTHPALHGVSAVAPMSAGVPAAMMYTGHVYPGPSSNVVTMQPKTLLESAFFMPDEMRAEVLARNEISNLIMDAAEAAQHALPLEVENYHALYPLEPPAQPLHAKLTFPATTYRATHNTTGYKYCLRRIHGFRLQSTKCMTLVEMWKKLQHTNVVQLREVFTTKAFGDNSLVLVYDYHPGSQTLLAKYFTPAPETNGYTDPFQGEARPFSHKSNMQRTSNGPLLPEATIWSIIMQLTAGLKAIHHAGLACKVLDPTKIIVTGKRVRFSSCCISDITQFDPNASNPLALVNMHQQDDLTALGRLVLALACRCLQSVQRDNVQSSIDMVTRNYSTDLRNFIVYLFTTNNRRSVTDLMPMIGARFYTQLDALQSKIDMQEDELAKEMENGRLYRILVKLNSINERPDFNLDCTWSETGDRYMLKLFRDYLFHSVTEDGRPWLDHAHIVQCLNKLDAGSIERVQLMSRDEQSVLIVSYAELKNCLENAFSELMSSAAN
B2: PAN2-PAN3 deadenylation complex catalytic subunit pan2 (Neurospora crassa (strain ATCC 24698 / 74-OR23-1A / CBS 708.71 / DSM 1257 / FGSC 987)), P0C581 (parent)
chain: MDSRDWTQLGCVAYPSPIHPDYHAGPASTIAFDNQDELLWIGTQKGFAGSFIGRELKRFTAFRIHPETDGPLRQFLFVDKGVIFLGSRSVYMAARSGVPIWSIRHESMQDLRAMSFTSKGTSEILVAGWQNKMLVIDVNKGEVVKELPTQDQYSFLKMSRYICAATNKGTVNILDPITFTIKKQWQAHGAFINDLDTSNDFIVTCGGSHRQTHNTPAILDPYVKVFDLKNMSAMNPVPFAPLAAHVRMHPRMLTTAIVVNQAGQIHVTDLLNPSNSQVCYTQPQGVVLHFDVSRTGEGKALADNKHNTYVWGSPNKIQFTEIGIPPRLPDPPQPSLLPPDPDMLEELPLSRIGLPYYREQLFSALPPDIISDVGAPPQQIDPNILSTLTKTDWGYIGPNKTGLQRNQYMDTRSTMKTSNTIRAPKFLSEKARESQTGSEDNTLATNETAMMTPNNDHWSLRPEAPPEYRICEIKYSKFGVDDFDFGFFNNTPYPGLENNITNSYANSLLQVMHYTPLLRNMALQHAATACLADPCLLCELGYVFDMLQKGEGPSCHATNMLRALNHTSNASVSGVLEDIAKDKNPSTLVKNLTMFLFDKISQDYKGTPPISTELERTLFKLNQPPNPLDLVKRLLETDARYQIKCMHCQHVSPRTATTFVNKLCYPAAKPNIRGMKAQRITFSQVLKAGLENEAVNKGYCTKCQRYQNLDQRKIIFNIPAVLALCTEITTAEHRKLWSTPGWLPEEIGIIVDQGHVYCYEGDDLKLHLNRGIHNITVYSLVGTVVNVETKSPQKSHLVATVNVGRAEPESKDQDRWHLFNDFSVRGISKVEALTFNAAWKMPVVVMFQVKAANHRFNMDWKTRLDTSVLFRDNNPHALKTYELLDRETEIPGPDTVIAIDTEFIRLKEREIHIDEDGKSKTIRPISHAIARASVVRGQGSREGVAFIDDYIHIKETIVDYLTEWSGITPTDLDPINSQRNLVSPKTAYKKLWVLVNLGCKFLGHGLSQDFRVINIQVPRNQVIDTSIIFMKPPSQRKISLAFLAWYLLKEDIQQNTHDSIEDAQTALKLYRKYEEFMANGSFHDVLEALYKKGKTLNFKPPRISTGAAKDAGFGAVHRVGTPPVPAPGTTEGSFEISNSSTATTGGSALSATGGMGSASASSSMPSTPVRKPIGLGGPFTVAGVVKPSPATSLDNFGAGAVGTGITTAAATMGGGYGGYGTDGAYWGGPNDMAPTSMIGGSAFIPAKFPPGPPETRGFIPYRPQVLLAEREAAAAAAAAAAAAAANNDVGGRGGVACGNGGAGGEQGKQE
partner: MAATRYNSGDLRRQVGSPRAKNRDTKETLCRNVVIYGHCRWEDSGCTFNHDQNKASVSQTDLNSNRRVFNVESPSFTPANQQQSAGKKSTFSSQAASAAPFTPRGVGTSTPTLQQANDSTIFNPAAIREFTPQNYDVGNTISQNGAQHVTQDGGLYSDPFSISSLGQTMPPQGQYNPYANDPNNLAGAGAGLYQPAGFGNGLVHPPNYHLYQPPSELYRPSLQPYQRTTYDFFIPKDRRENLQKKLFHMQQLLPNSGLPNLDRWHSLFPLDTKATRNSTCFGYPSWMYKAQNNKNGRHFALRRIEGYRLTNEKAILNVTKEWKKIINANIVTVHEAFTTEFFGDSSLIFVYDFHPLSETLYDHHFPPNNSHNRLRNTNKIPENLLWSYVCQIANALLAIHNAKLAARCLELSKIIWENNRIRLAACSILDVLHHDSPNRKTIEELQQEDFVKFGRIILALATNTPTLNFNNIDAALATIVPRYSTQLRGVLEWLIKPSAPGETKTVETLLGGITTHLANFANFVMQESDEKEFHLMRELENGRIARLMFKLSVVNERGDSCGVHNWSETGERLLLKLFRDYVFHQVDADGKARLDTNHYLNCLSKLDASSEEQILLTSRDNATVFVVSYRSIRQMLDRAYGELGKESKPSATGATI
B3: PAN2-PAN3 deadenylation complex subunit pan3 (Neurospora crassa (strain ATCC 24698 / 74-OR23-1A / CBS 708.71 / DSM 1257 / FGSC 987)), Q7SDP4 (parent)
chain: B2 partner
partner: B2 chain

The first assay covers variants of B1. The following applies: with pan2_drome PAN2, A1Z7K9.
Chain of pan2_drome PAN2, A1Z7K9 (A1Z7K9 whole entry): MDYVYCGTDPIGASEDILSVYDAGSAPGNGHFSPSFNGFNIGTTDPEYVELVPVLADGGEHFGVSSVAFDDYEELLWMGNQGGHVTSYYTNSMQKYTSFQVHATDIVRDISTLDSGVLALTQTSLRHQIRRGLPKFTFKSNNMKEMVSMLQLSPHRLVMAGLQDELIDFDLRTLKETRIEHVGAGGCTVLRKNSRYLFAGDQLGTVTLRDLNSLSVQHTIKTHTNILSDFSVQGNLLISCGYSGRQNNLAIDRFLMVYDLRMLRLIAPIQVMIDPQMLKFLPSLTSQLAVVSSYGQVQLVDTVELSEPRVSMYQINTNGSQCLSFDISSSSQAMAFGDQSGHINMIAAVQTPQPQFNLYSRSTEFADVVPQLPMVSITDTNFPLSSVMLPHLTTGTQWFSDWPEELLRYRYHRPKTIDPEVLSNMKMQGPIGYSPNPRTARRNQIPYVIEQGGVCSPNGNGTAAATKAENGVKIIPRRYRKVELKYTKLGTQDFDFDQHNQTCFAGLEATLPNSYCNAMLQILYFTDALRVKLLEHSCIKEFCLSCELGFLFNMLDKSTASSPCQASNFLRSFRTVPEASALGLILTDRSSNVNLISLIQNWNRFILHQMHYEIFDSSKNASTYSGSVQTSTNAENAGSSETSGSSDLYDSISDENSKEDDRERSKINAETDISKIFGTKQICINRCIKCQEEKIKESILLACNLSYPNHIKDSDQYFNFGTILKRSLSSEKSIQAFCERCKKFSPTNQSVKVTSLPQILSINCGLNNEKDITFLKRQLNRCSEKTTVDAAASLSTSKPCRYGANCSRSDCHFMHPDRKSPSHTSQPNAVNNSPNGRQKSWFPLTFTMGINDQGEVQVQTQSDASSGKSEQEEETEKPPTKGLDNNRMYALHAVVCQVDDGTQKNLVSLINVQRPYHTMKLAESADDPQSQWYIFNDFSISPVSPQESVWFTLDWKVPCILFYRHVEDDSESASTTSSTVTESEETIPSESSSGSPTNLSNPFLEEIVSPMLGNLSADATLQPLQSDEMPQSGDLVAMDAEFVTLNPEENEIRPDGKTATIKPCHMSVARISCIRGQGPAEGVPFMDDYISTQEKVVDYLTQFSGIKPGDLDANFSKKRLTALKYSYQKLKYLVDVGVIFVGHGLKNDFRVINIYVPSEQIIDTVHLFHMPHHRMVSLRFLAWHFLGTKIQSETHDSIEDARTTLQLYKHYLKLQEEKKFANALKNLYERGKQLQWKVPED
For W707A;G711E;Y722A;H739A;R754A, the “effect of a mutation on the interaction” value was “decreasing interaction strength”. Still for that read-out and setting: the result for Y722A;H739A;R754A reads “decreasing interaction strength”.

In a further assay the parent is B2. The following applies: with pan3_neucr par-2, Q7SDP4.
For the variant P99R, the “effect of a mutation on the interaction” value is “disrupting interaction strength”. On the same count and under the same terms, the result for G97E reads “disrupting interaction strength”. The same measure, in the same setting: next, T60R: “disrupting interaction strength”. Same read-out and setting: next, F62E: “disrupting interaction strength”.

The variants in the next assay derive from B3. The following applies: with pan2_neucr par-1, P0C581.
In the case of V627E, the “effect of a mutation on the interaction” value is “disrupting interaction strength”.
